Assay results reported in patent publication US20240360238A1 (MAGENTA THERAPEUTICS, published 2024).

Experiments:
[1] = biological target: T1, purified human CD117 ectodomain (R&D Systems #332-SR) (human, UniProt P10721 26-524); assay: BLI, purified IgG on sensor, soluble ectodomain; apparent monovalent
T1 construct: extracellular domain; Bought protein; also called c-kit; purified recombinant human CD117 ectodomain

[2] = biological target: T2, purified rhesus CD117 ectodomain (rhesus, UniProt F6V858 26-524); assay: BLI, purified IgG on sensor, soluble rhesus ectodomain; apparent monovalent
T2 construct: extracellular domain; also called rhesus antigen

T1 sequence (P10721 26-524): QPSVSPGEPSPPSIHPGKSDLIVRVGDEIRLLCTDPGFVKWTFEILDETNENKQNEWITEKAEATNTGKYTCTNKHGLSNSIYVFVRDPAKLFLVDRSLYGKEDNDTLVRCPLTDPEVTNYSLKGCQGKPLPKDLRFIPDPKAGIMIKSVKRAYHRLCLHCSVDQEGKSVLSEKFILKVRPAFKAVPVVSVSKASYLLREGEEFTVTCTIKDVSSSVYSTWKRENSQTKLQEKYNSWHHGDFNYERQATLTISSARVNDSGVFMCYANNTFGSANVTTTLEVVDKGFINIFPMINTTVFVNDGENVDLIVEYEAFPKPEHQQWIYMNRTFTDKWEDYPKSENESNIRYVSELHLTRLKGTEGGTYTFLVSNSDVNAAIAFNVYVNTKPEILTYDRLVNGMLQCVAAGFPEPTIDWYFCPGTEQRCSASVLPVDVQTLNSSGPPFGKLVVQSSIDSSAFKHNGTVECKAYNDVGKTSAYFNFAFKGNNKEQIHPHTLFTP

Binder | Kd [1] [nM] | koff [1] [s⁻¹] | kon [1] [M⁻¹ s⁻¹] | Kd [2] [nM] | koff [2] [s⁻¹] | kon [2] [M⁻¹ s⁻¹]
HC-18/LC-18 (Ab18) (antibody, IgG1, V domains shown, From rat immunization/hybridoma; purified IgG in BLI; also called 018) VH: EVQLQQYGAELGKPGTSVRLSCKVSGYNIRNTYIHWVNQRPGEGLEWIGRIDPTNGNTISAEKFKTKATLTADTSSHTAYLQFSQLKSDDTAIYFCALNYEGYADYWGQGVMVTGSS VL: DIQMTQSPSFLSASVGDRVTINCKASQNINKYLNWYQQKVGEAPKRLIFKTNSLQTGIPSRFSGSGSGTDYTLTISSLQTEDVATYFCFQYNIGYTFGAGTKVELK | 22.2 | 0.00491 | 221000 | 53.8 | 0.0119 | 221000
HC-20/LC-20 (Ab20) (antibody, IgG1, V domains shown, From rat immunization/hybridoma; purified IgG in BLI; also called 020) VH: EVQLQQYGAELGKPGTSVRLSCKLSGYKIRNTYIHWVNQRPGKGLEWIGRIDPANGNTIYAEKFKSKVTLTADTSSNTAYMQLSQLKSDDTALYFCAMNYEGYEDYWGQGVMVTVSS VL: DIQMTQSPSFLSASVGDSVTINCKASQNINKYLNWYQQKLGEAPKRLIHKTDSLQTGIPSRFSGSGSGTDYTLTISSLQPEDVATYFCFQYKSGFMFGAGTKLELK | 0.254 | 0.000202 | 794000 | 1.39 | 0.000585 | 421000
HC-28/LC-28 (Ab28) (antibody, IgG1, V domains shown, From rat immunization/hybridoma; purified IgG in BLI; also called 028) VH: EVQLQQYGAELGKPGTSVRLSCKVSGYKIRNTYIHWVNQRPGKGLEWIGRIDPANGNTIYAEKFKSKVTLTADTSSNTAYMQLSQLKSDDTALYFCAMNYEGYEDYWGQGVMVTVSS VL: DIQMTQSPSFLSASVGDSVTINCKASQNINKYLNWYQQKLGEAPKRLIHKTNSLQPGFPSRFSGSGSGTDYTLTISSLQPEDVAAYFCFQYNSGFTFGAGTKLELK | 0.403 | 0.000368 | 914000 | 3.6 | 0.00187 | 521000
HC-23/LC-23 (Ab23) (antibody, IgG1, V domains shown, From rat immunization/hybridoma; purified IgG in BLI; also called 023) VH: EVQLQQYGAELGKPGTSVRLSCKVSGYNIRNTYIHWVHQRPGEGLEWIGRIDPTNGNTISAEKFKSKATLTADTSSNTAYMQFSQLKSDDTAIYFCAMNYEGYADYWGQGVMVTVSS VL: DIQMTQSPSFLSASVGDRLTINCKASQNINKYLNWYQQKLGEAPKRLIFKTNSLQTGIPSRFSGSGSGTDYTLTISSLQPEDVATYFCFQYNIGFTFGAGTKLELK | 1.49 | 0.000713 | 478000 | 7.62 | 0.00214 | 280000
HC-17/LC-17 (Ab17) (antibody, IgG1, V domains shown, From rat immunization/hybridoma; purified IgG in BLI; also called 017) VH: QIQLVQSGPELRKPGESVKISCKASGYTFTDYAMYWVKQAPGKGLKWMGWINTYTGKPTYADDFKGRFVFSLEASANTANLQISNLKNEDTATYFCARARGLVDDYVMDAWGQGTSVTVSS VL: SYELIQPPSASVTLGNTVSLTCVGDELSKRYAQWYQQKPDKTIVSVIYKDSERPSGISDRFSGSSSGTTATLTIHGTLAEDEADYYCLSTYSDDNLPVFGGGTKLTVL | 0.672 | 0.000306 | 456000 | 0.562 | 0.000173 | 307000
HC-21/LC-21 (Ab21) (antibody, IgG1, V domains shown, From rat immunization/hybridoma; purified IgG in BLI; also called 021) VH: QIQLVQSGPELKKPGESVKISCKASGYTFTDYAVYWVIQAPGKGLKWMGWINTYTGKPTYADDFKGRFVFSLETSASTANLQISNLKNEDTATYFCARGAGMTKDYVMDAWGRGVLVTVS VL: SYELIQPPSASVTLGNTVSLTCVGDELSKRYAQWYQQKPDKTIVSVIYKDSERPSDISDRFSGSSSGTTATLTIHGTLAEDEADYYCLSTYSDDNLPVFGGGTKLTVL | 0.715 | 0.000437 | 612000 | 0.869 | 0.000357 | 410000
HC-14/LC-14 (Ab14) (antibody, IgG1, V domains shown, Purified IgG; also called 014) VH: QVQLVQSGAAVKKPGESLKISCKGSGYRFTTYWIGWVRQMPGKGLEWMGIIYPGDSDTRYSPSFQGQVTISAGKSISTAYLQWSSLKASDTAMYYCARHGRGYNGYEGAFDIWGQGTMVTVSS VL: DIQLTQSPSSLSASVGDRVTITCRASQGISSFLAWYQQKPGKAPKLLIYDASTLQSGVPSRFSGSASGTDFTLTISSLQPEDFATYYCQQLNGYPLTFGGGTKVEIK | 2.03 | 0.000577 | 284000 | – | – | –
HC-6/LC-6 (Ab6) (antibody, IgG1, V domains shown, Purified IgG; also called 006) VH: QVQLVQSGAAVKKPGESLKISCKGSGYRFTTYWIGWVRQMPGKGLEWMGIIYPGDSDTRYSPSFQGQVTISAGKSISTAYLQWSSLKASDTAMYYCARHGRGYNGYEGAFDIWGQGTMVTVSS VL: AIRMTQSPSSLSASVGDRVIIACRASQGIGGALAWYQQKPGNAPKVLVYDASTLESGVPSRFSGGGSGTDFTLTISSLQPEDFATYYCQQFNSYPLTFGGGTKLEIK | 3.72 | 0.00117 | 315000 | – | – | –
HC-10/LC-10 (Ab10) (antibody, IgG1, V domains shown, Purified IgG; also called 010) VH: QVQLVQSGAAVKKPGESLKISCKGSGYRFTTYWIGWVRQMPGKGLEWMGIIYPGDSDTRYSPSFQGQVTISAGKSISTAYLQWSSLKASDTAMYYCARHGRGYNGYEGAFDIWGQGTMVTVSS VL: NIQMTQSPSSLSTSVGDRVTITCRASQGIGTSLAWYQQKPGKPPKLLIYDASSLESGVPSRLSGSGSGTDFTLTISSLQPEDFATYYCQQSNSYPITFGQGTRLEIK | 1.68 | 0.000585 | 348000 | – | – | –
HC-9/LC-9 (Ab9) (antibody, IgG1, V domains shown, Purified IgG; also called 009) VH: QVQLVQSGAAVKKPGESLKISCKGSGYRFTTYWIGWVRQMPGKGLEWMGIIYPGDSDTRYSPSFQGQVTISAGKSISTAYLQWSSLKASDTAMYYCARHGRGYNGYEGAFDIWGQGTMVTVSS VL: AIRMTQSPSSLSASVGDRVTITCQASQGIRNDLGWYQQKPGKAPKLLIYDASNLETGVPSRFSGSGSGTDFTFTISSLQPEDIATYYCQQFNSYPLTFGGGTKLEIK | 1.51 | 0.000427 | 283000 | – | – | –
HC-11/LC-11 (Ab11) (antibody, IgG1, V domains shown, Purified IgG; also called 011) VH: QVQLVQSGAAVKKPGESLKISCKGSGYRFTTYWIGWVRQMPGKGLEWMGIIYPGDSDTRYSPSFQGQVTISAGKSISTAYLQWSSLKASDTAMYYCARHGRGYNGYEGAFDIWGQGTMVTVSS VL: AIQLTQSPSSLSASVGDRVTITCRASQSIGDYLTWYQQKPGKAPKVLIYGASSLQSGVPPRFSGSGSGTDFTLTVSSLQPEDFATYYCQQLNSYPLTFGGGTKLEIK | 1.41 | 0.000474 | 336000 | – | – | –
HC-15/LC-15 (Ab15) (antibody, IgG1, V domains shown, Purified IgG; also called 015) VH: QVQLVQSGAAVKKPGESLKISCKGSGYRFTTYWIGWVRQMPGKGLEWMGIIYPGDSDTRYSPSFQGQVTISAGKSISTAYLQWSSLKASDTAMYYCARHGRGYNGYEGAFDIWGQGTMVTVSS VL: AIQLTQSPSSLSASVGDRVTITCRASQGIGSALAWYQQKPGIGPKLLIYDASTLESGVPARFSGSGSRTDFTLTITSLQPEDFATYYCQQFNGYPLTFGGGTKLEIK | 0.979 | 0.00026 | 265000 | – | – | –
HC-16/LC-16 (Ab16) (antibody, IgG1, V domains shown, Purified IgG; also called 016) VH: QVQLVQSGAAVKKPGESLKISCKGSGYRFTTYWIGWVRQMPGKGLEWMGIIYPGDSDTRYSPSFQGQVTISAGKSISTAYLQWSSLKASDTAMYYCARHGRGYNGYEGAFDIWGQGTMVTVSS VL: AIQLTQSPSSLSASVGDRVTITCRASQGITSALAWYQEKPGKAPNLLIYDASSLESGVPSRFSGSGYGTDFTLTISSLQPEDFATYYCQQLNSYPLTFGGGTKVDIK | 2.93 | 0.000949 | 324000 | – | – | –
HC-24/LC-24 (Ab24) (antibody, IgG1, V domains shown, From rat immunization/hybridoma; purified IgG in BLI; also called 024) VH: EVQLVESGGGLVQSGRSLKLSCAASGFTVSDYYMAWVRQAPTKGLEWVATINYDGSTTYHRDSVKGRFTISRDNAKSTLYLQMDSLRSEDTATYYCARHGDYGYHYGAYYFDYWGQGVMVTVSS VL: DIVLTQSPALAVSLGQRATISCRASQTVSLSGYNLIHWYQQRTGQQPKLLIYRASNLAPGIPARFSGSGSGTDFTLTISPVQSDDIATYYCQQSRESWTFGGGTNLEMK | 0.986 | 0.00011 | 111000 | 19.6 | 0.000777 | 39700
HC-27/LC-27 (Ab27) (antibody, IgG1, V domains shown, From rat immunization/hybridoma; purified IgG in BLI; also called 027) VH: EVQLVESGGGLVQPGRSMKLSCKASGFTFSNYDMAWVRQAPTRGLEWVASISYDGITAYYRDSVKGRFTISRENAKSTLYLQLVSLRSEDTATYYCTTEGGYVYSGPHYFDYWGQGVMVTVSS VL: DIQMTQSPSSMSVSLGDTVTITCRASQDVGIFVNWFQQKPGRSPRRMIYRATNLADGVPSRFSGSRSGSDYSLTISSLESEDVADYHCLQYDEFPRTFGGGTKLELK | 0.53 | 0.000378 | 712000 | 0.89 | 0.000275 | 309000
HC-22/LC-22 (Ab22) (antibody, IgG1, V domains shown, From rat immunization/hybridoma; purified IgG in BLI; also called 022) VH: QVQLKESGPGLVQPSQTLSLTCTVSGFSLTSYLVHWVRQPPGKTLEWVGLMWNDGDTSYNSALKSRLSISRDTSKSQVFLKMHSLQAEDTATYYCARESNLGFTYWGHGTLVTVSS VL: DIQMTQSPASLSASLEEIVTITCKASQGIDDDLSWYQQKPGKSPQLLIYDVTRLADGVPSRFSGSRSGTQYSLKISRPQVADSGIYYCLQSYSTPYTFGAGTKLELK | 0.0964 | 0.000221 | 2.29e+06 | 0.0891 | 0.000155 | 1.74e+06
HC-25/LC-25 (Ab25) (antibody, IgG1, V domains shown, From rat immunization/hybridoma; purified IgG in BLI; also called 025) VH: QIQLVQSGPELKKPGESVKISCKASGYTFTDYAIHWVKQAPGQGLRWMAWINTETGKPTYADDFKGRFVFSLEASASTAHLQISNLKNEDTATFFCAGGSHWFAYWGQGTLVTVSS VL: SYELIQPPSASVTLENTVSITCSGDELSNKYAHWYQQKPDKTILEVIYNDSERPSGISDRFSGSSSGTTAILTIRDAQAEDEADYYCLSTFSDDDLPIFGGGTKLTVL | 0.52 | 0.00153 | 2.94e+06 | 0.81 | 0.00195 | 2.41e+06
HC-19/LC-19 (Ab19) (antibody, IgG1, V domains shown, From rat immunization/hybridoma; purified IgG in BLI; also called 019) VH: EVQLQESGPGLVKPSQSLSLTCSVTGYSISSNYRWNWIRKFPGNKVEWMGYINSAGSTNYNPSLKSRISMTRDTSKNQFFLQVNSVTTEDTATYYCARSLRGYITDYSGFFDYWGQGVMVTVSS VL: DIRMTQSPASLSASLGETVNIECLASEDIFSDLAWYQQKPGKSPQLLIYNANSLQNGVPSRFSGSGSGTRYSLKINSLQSEDVATYFCQQYKNYPLTFGSGTKLEIK | 2.35 | 0.000481 | 205000 | 2.34 | 0.000415 | 177000
